Laboratory results reported in publication PMC4282956.
Like-named read-outs stand apart in the source and are kept apart here.

What was measured:
Assay in all cases: SPR
[1] = target: HLA-B*08:01.N80I.R82L.G83R/FLR (human | not stated | EBV)
[2] = target: HLA-B*08:01.R82L/FLR (human | not stated | EBV)
[3] = target: HLA-B*08:01.N80I.R82L.G83R/FLR (human | not stated | EBV); remark: listed apart in the source

Substance: Soluble KIR3DL1*001 (from UniProt P43629 22-340) (receptor)
- Kd [1]: 41.9 µM
- Kd [2]: > 300 µM
- Kd [3]: 40.1 µM
